Measurements published in PMC5431086 (Scientific Reports, 2017).
Positions of bridges follow the written chain, without caps; N, C: chain ends. No end group written: not given here.

Legend:
Assay in all cases: enzyme inhibition assay (panel of proteases); cyc-LHSPW tested against a panel of cancer-associated proteases (Fig. 5A); conditions not given
[1] = target: FAP (UniProt Q12884 1-760)
[2] = target: T1, aminopeptidase A (UniProt Q07075 1-957)
T1 chain: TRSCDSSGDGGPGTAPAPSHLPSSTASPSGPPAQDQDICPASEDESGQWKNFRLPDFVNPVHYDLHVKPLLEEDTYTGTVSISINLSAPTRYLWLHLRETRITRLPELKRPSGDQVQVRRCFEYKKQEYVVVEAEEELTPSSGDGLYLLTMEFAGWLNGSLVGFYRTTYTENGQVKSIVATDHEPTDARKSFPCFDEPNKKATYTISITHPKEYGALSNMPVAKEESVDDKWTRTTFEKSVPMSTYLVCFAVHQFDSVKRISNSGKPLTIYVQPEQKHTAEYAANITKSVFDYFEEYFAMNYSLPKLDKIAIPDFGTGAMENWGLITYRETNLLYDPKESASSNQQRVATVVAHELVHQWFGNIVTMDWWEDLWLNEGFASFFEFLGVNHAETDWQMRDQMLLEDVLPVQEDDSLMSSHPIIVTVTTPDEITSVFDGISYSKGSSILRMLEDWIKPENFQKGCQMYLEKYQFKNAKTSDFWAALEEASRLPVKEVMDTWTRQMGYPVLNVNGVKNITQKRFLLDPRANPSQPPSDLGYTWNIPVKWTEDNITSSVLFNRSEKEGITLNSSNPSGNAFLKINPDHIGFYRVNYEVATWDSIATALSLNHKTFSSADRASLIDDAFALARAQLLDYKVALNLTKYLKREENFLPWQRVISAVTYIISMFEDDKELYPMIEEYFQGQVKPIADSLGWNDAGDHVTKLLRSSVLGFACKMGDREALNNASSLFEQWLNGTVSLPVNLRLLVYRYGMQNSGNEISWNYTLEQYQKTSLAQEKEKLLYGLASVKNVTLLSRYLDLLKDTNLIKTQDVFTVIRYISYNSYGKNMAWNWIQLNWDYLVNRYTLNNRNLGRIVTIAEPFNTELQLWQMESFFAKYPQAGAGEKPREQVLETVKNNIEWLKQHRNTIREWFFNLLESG

[3] = target: trypsin
[4] = target: KLK7 (UniProt P49862 23-253)
[5] = target: PSA (UniProt P07288 18-261)

Measured: Ki

FAP, sequence (Q12884 26-760): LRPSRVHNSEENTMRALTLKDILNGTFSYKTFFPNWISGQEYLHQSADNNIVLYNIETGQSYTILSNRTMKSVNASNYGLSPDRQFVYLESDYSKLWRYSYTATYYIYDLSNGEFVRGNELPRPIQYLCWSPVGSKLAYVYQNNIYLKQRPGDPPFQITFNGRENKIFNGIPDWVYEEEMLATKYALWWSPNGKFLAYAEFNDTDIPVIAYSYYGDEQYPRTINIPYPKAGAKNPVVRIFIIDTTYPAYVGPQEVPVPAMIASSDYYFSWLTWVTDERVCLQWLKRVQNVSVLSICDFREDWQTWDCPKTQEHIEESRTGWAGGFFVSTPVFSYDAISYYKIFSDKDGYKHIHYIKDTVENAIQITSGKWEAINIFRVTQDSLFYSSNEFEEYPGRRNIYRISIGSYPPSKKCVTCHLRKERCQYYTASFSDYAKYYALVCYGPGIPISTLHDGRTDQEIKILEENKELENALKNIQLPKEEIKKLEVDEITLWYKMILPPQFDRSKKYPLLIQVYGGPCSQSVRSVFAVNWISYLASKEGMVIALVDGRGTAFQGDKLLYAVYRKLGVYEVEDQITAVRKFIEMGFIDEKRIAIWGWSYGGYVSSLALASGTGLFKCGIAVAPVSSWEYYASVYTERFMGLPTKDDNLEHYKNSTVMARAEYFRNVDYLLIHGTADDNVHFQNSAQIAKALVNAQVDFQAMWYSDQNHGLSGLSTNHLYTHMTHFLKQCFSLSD
PSA, sequence (P07288 25-261): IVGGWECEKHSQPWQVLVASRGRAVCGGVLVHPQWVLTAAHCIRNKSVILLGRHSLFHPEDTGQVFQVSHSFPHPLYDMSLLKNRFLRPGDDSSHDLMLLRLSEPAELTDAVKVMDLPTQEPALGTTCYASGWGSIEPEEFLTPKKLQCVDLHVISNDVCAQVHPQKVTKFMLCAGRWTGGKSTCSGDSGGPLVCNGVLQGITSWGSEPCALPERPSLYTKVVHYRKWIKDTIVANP
KLK7, sequence (P49862 30-253): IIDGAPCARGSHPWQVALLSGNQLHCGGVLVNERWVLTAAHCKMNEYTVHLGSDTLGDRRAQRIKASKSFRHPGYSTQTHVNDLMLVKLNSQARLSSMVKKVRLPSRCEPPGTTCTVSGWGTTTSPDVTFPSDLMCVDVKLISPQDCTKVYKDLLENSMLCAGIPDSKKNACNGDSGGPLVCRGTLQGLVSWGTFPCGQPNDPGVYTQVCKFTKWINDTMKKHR

CLHSPWC (disulfide 1-7) [cyc-LHSPW]
> 100 µM: all assays above
